These results are taken from patent publication US20210179728A1 (OSE IMMUNOTHERAPEUTICS, published 2021).

Assay [1] concerns the target T1, recombinant hSIRPa (Sino Biologicals, reference 11612-H08H) (human, UniProt P78324 31-370).
T1 construct: also called SIRPa-His; human SIRPa-His; not shown: His tag (histidine tail)
Briefly: ELISA on immobilized hSIRPa-His, anti-human IgG detection, first experiment; first experiment. The protocol: (§1) Method: The binding activity of the anti-SIRPa antibodies was assessed by ELISA.
On the technique in general: ELISA stands for enzyme-linked immunosorbent assay.

The target in assay [2] is T1, recombinant hSIRPa (Sino Biologicals, …). Kind of assay: ELISA on immobilized hSIRPa-His, anti-human IgG detection, second experiment. As for the experimental part: as §1
Assay [3] has the same target. Briefly: SPR (Biacore); SIRPa-His immobilized on CM5 chip, antibody injected. The protocol:
FIG. 2. Affinity analysis by Biacore of anti-SIRP antibodies on human SIRPa recombinant protein. SIRPa-His recombinant protein was immobilized onto a CM5 chip at 5 μg/ml (500 RU) and the indicated antibodies were added at different concentration.
Method: Recombinant hSIRPa (Sino Biologicals, Beijing, China; reference 11612-H08H) was immobilized into a CM5 sensor chip (GeHealthcare; France) at 5 μg/ml (500 RU) and antibodies were applied at different concentrations with a flow rate of 40 μl/min. Analysis was performed with a BIAcore 3000 (Biacore, GeHealthcare).
In general terms: SPR reads the build-up and loss of mass on a sensor chip optically.

The target in assay [4] is T2, recombinant hSIRPg-His (Sino Biologicals, reference 11828-H08H) (human, UniProt Q9P1W8 29-360).
T2 construct: also called human SIRPg-His; not shown: His tag
Briefly: BLI (Blitz); SIRPg-His on Ni-NTA biosensor, antibody at 10 ug/ml or 20 ug/ml (Example 9) [B, table A]. The protocol: FIG. 8. (A) Affinity analysis by Blitz of anti-SIRP antibodies on human SIRPg recombinant protein. SIRPg-His recombinant protein was immobilized onto a NINTA biosensor and the indicated antibodies were added at 10 μg/ml. […] (B) Binding analysis by ELISA assay of anti-SIRP antibodies on SIRPg (human SIRPg-His coating and anti-human kappa detection).
(§2) Method: This method was performed with a Blitz (Forte Bio; USA; reference C22-2 No 61010-1). Recombinant hSIRPg-His (Sino Biologicals, Beijing, China; reference 11828-H08H) was immobilized at 10 μg/ml by histidine tail into a Ni-NTA biosensor (Forte Bio; USA; reference 18-0029) for 30 seconds. Then, an anti-SIRPa antibody was associated at 20 μg/mL for 120 seconds. The dissociation of anti-SIRPa antibody was made in kinetics buffer for 120 seconds. Analysis of data was made with the Blitz pro 1.2 software, which calculated association constant (ka) and dissociation constant (kd) and determined the affinity constant KD […].

The target of assay [5] is T1, recombinant hSIRPa (Sino Biologicals, …). Briefly: competition ELISA on immobilized SIRPa-His; competitor biotinylated CD47-Fc at 6 ug/ml, streptavidin-peroxidase [second experiment table]. As for the experimental part:
Method: For competitive ELISA assay, recombinant hSIRPa (Sino Biologicals, Beijing, China; reference 11612-H08H) was immobilized on plastic at 0.5 μg/ml in carbonate buffer (pH9.2).

For assay [6], the target named is T3, recombinant hSIRPb-His (Antibodies-online, reference ABIN3077231) (human, UniProt Q5TFQ8 30-371).
T3 construct: also called SIRPb-His (Blitz); not shown: His tag
Kind of assay: BLI (Blitz); SIRPb-His on Ni-NTA biosensor, antibody at 20 ug/ml [B, table A]. The protocol:
FIG. 7. (A) Affinity analysis by Blitz of anti-SIRP antibodies on human SIRPb recombinant protein. SIRPb-His recombinant protein was immobilized onto a NINTA biosensor and the indicated antibodies were added at 20 μg/ml. […] (B) Binding analysis of anti-SIRP antibodies (human SIRPb-His coating and anti-human kappa detection).
as §2, with “hSIRPb-His (Antibodies-online; USA;” for “hSIRPg-His (Sino Biologicals, Beijing, China;”, “ABIN3077231)” for “11828-H08H)”

The target in assay [7] is T1, recombinant hSIRPa (Sino Biologicals, …). Kind of assay: ELISA on immobilized hSIRPa-His, anti-human IgG detection, third experiment. As for the experimental part:
as §1

Assay [8] shares this target. Briefly: ELISA on immobilized SIRPa-His, peroxidase anti-human IgG, DO 450nm [panel CD80]. The protocol:
Method: For ELISA assay, recombinant hSIRPa (Sino Biologicals, Beijing, China; reference 11612-H08H) was immobilized on plastic at 0.5 μg/ml in carbonate buffer (pH9.2) and different modified anti-SIRPa antibodies were added to measure binding to SIRPa.

A further assay concerns the target T4, CTLA4-Fc (human, UniProt P16410 36-161, limits assumed).
T4 construct: not shown: Fc; not specified
Briefly: ELISA: modified antibody (concentration on the axis) captured on SIRPa-His, then CTLA4-Fc, detected with mouse anti-human CTLA4 [panel CD80].

T1 sequence (P78324 31-370 limits assumed): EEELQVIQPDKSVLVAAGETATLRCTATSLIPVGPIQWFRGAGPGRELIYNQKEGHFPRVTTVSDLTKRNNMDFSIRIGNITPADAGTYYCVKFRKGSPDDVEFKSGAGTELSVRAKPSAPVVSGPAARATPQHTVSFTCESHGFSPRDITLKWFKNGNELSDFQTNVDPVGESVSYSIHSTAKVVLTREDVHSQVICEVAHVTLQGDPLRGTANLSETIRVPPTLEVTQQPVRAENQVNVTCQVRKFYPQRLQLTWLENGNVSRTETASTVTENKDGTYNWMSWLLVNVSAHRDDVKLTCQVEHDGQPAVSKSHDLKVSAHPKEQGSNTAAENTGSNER
T2 sequence (Q9P1W8 29-360 limits assumed): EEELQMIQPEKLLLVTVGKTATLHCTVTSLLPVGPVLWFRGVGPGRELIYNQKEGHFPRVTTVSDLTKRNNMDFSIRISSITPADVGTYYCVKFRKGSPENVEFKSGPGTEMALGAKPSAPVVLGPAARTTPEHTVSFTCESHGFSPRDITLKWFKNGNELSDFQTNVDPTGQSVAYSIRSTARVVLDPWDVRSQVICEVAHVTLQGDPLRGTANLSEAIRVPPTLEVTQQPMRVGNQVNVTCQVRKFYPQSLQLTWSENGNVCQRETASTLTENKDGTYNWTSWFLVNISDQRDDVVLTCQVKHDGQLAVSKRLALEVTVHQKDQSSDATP
T3 sequence (Q5TFQ8 30-371): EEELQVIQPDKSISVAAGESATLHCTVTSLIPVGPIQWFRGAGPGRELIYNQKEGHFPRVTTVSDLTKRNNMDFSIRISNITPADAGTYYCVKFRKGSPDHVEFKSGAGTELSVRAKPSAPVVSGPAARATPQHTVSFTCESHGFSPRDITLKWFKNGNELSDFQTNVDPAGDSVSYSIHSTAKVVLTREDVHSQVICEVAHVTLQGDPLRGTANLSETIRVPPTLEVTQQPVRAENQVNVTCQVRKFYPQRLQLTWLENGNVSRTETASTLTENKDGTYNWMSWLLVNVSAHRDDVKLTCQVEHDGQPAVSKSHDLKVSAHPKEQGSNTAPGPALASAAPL
T4 sequence (P16410 36-161 limits assumed): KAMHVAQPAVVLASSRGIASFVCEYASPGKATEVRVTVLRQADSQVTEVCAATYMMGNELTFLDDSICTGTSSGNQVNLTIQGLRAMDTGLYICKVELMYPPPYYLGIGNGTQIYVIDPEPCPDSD

B1: HFLA (antibody, human IgG4 S228P, kappa, V domains shown)
VH: EVQLVQSGAEVKKPGESLRISCKASGYSFTSYWVHWVRQMPGKGLEWMGNIDPSDSDTHYSPSFQGHVTLSVDKSISTAYLQLSSLKASDTAMYYCVRGGTGTMAYFAYWGQGTLVTVSS
VL: DVVMTQSPLSLPVTLGQPASISCRSSQSLVHSYGNTYLYWYQQRPGQSPRLLIYRVSNRFSGVPDRFSGSGSGTDFTLKISRVEAEDVGVYFCFQGTHVPYTFGGGTKVEIKR
notes: humanized 18D5 variant
As a reminder, the EC50 is the concentration that produces a half-maximal response. As a reminder, the Kd is the concentration at which binding is half-saturated. The koff is a measure of how fast the partners let go of each other. Usually kon stands for a measure of how fast the partners come together. By IC50 is commonly meant the concentration that inhibits the measured activity by half. As for B1, the EC50 in [1] came to 5.1 ng/mL; in assay [2], 4.61 ng/mL. Besides, the dissociation constant Kd in assay [3] came to 0.217 nM; in [4], 47.6 nM; in assay [6], 25.8 nM. Besides, the koff came to 0.000186 s⁻¹ in assay [3], 0.0118 s⁻¹ in assay [4] and 0.00192 s⁻¹ in assay [6]. The kon is 857000 M⁻¹ s⁻¹ in [3], 248000 M⁻¹ s⁻¹ in assay [4] and 74500 M⁻¹ s⁻¹ in [6]. The IC50 in assay [5] was 0.146 µg/mL.

B2: HCLB (antibody, human IgG4 S228P, kappa, V domains shown)
VH: EVQLVQSGAEVKKPGESLRISCKASGYSFTSYWVHWVRQMPGKGLEWMGNIDPSDSDTHYSPSFQGHVTLSVDKSISTAYLQLSSLKASDTAMYYCVRGGTGTMAWFAYWGQGTLVTVSS
VL: DVVMTQSPLSLPVTLGQPASISCRSSQSLVHSYGNTYLYWFQQRPGQSPRLLIYRVSNRFSGVPDRFSGSGSGTDFTLKISRVEAEDVGVYYCFQGTHVPYTFGGGTKVEIKR
notes: humanized 18D5 variant; also called humanized 18D5 variant HCLB
With B2, the EC50 in assay [2] was found to be 5.59 ng/mL.

B3: HELB (antibody, human IgG4 S228P, kappa, V domains shown)
VH: EVQLVQSGAEVKKPGESLRISCKASGYSFTSYWVHWVRQMPGKGLEWMGNIDPSDSDTHYSPSFQGHVTLSVDKSISTAYLQLSSLKASDTAMYYCVRGGTGTLAWFAYWGQGTLVTVSS
VL: DVVMTQSPLSLPVTLGQPASISCRSSQSLVHSYGNTYLYWFQQRPGQSPRLLIYRVSNRFSGVPDRFSGSGSGTDFTLKISRVEAEDVGVYYCFQGTHVPYTFGGGTKVEIKR
notes: humanized 18D5 variant; also called humanized 18D5 variant HELB
Regarding B3, the EC50 in assay [2] was determined as 4.13 ng/mL.

B4: HEFLA (antibody, human IgG4 S228P, kappa, V domains shown)
VH: EVQLVQSGAEVKKPGESLRISCKASGYSFTSYWVHWVRQMPGKGLEWMGNIDPSDSDTHYSPSFQGHVTLSVDKSISTAYLQLSSLKASDTAMYYCVRGGTGTLAYFAYWGQGTLVTVSS
VL: DVVMTQSPLSLPVTLGQPASISCRSSQSLVHSYGNTYLYWYQQRPGQSPRLLIYRVSNRFSGVPDRFSGSGSGTDFTLKISRVEAEDVGVYFCFQGTHVPYTFGGGTKVEIKR
notes: humanized 18D5 variant
For the molecule B4, the EC50 in assay [1] is 7.1 ng/mL. Further, in assay [3], the Kd was 0.264 nM, the koff amounted to 0.000148 s⁻¹ and the kon is 559000 M⁻¹ s⁻¹. In [4], the Kd turned out to be 52.4 nM, the koff stood at 0.0114 s⁻¹ and the kon was 217000 M⁻¹ s⁻¹. In addition, the half-maximal inhibitory concentration (IC50) in [5] was determined as 0.191 µg/mL. Moreover, in [6], the Kd worked out at 12.4 nM, the koff amounted to 0.00122 s⁻¹ and the kon was 98300 M⁻¹ s⁻¹.

B5: HBLA (antibody, human IgG4 S228P, kappa, V domains shown)
VH: EVQLVQSGAEVKKPGESLRISCKASGYSFTSYWVHWVRQMPGKGLEWMGNIDPSDSDTHYNQKFKDHVTLSVDKSISTAYLQLSSLKASDTAMYYCVRGGTGTMAWFAYWGQGTLVTVSS
VL: DVVMTQSPLSLPVTLGQPASISCRSSQSLVHSYGNTYLYWYQQRPGQSPRLLIYRVSNRFSGVPDRFSGSGSGTDFTLKISRVEAEDVGVYFCFQGTHVPYTFGGGTKVEIKR
notes: humanized 18D5 variant; also called humanized 18D5 variant HBLA
B5: the EC50 in assay [7] turned out to be 2.68 ng/mL.

B6: HALA (antibody, human IgG4 S228P, kappa, V domains shown)
VH: EVQLVQSGAEVKKPGESLRISCKASGYTFTSYWVHWVRQMPGKGLEWIGNIDPSDSDTHYNQKFKDHVTLSVDKSISTAYLQLSSLKASDTAMYYCVRGGTGTMAWFAYWGQGTLVTVSS
VL: DVVMTQSPLSLPVTLGQPASISCRSSQSLVHSYGNTYLYWYQQRPGQSPRLLIYRVSNRFSGVPDRFSGSGSGTDFTLKISRVEAEDVGVYFCFQGTHVPYTFGGGTKVEIKR
notes: humanized 18D5 variant; also called humanized 18D5 variant HALA
In the case of B6, the EC50 in assay [1] worked out at 3.9 ng/mL. In addition, in [4], the Kd is 46.1 nM, the koff came to 0.00709 s⁻¹ and the kon came out at 154000 M⁻¹ s⁻¹. Moreover, in [6], the Kd amounted to 6.4 nM, the koff was determined as 0.00085 s⁻¹ and the kon was 133000 M⁻¹ s⁻¹.

B7: HALB (antibody, human IgG4 S228P, kappa, V domains shown)
VH: EVQLVQSGAEVKKPGESLRISCKASGYTFTSYWVHWVRQMPGKGLEWIGNIDPSDSDTHYNQKFKDHVTLSVDKSISTAYLQLSSLKASDTAMYYCVRGGTGTMAWFAYWGQGTLVTVSS
VL: DVVMTQSPLSLPVTLGQPASISCRSSQSLVHSYGNTYLYWFQQRPGQSPRLLIYRVSNRFSGVPDRFSGSGSGTDFTLKISRVEAEDVGVYYCFQGTHVPYTFGGGTKVEIKR
notes: humanized 18D5 variant; also called humanized 18D5 variant HALB
Consider B7, for which the EC50 in assay [7] was 2.53 ng/mL.

B8: HBLB (antibody, human IgG4 S228P, kappa, V domains shown)
VH: EVQLVQSGAEVKKPGESLRISCKASGYSFTSYWVHWVRQMPGKGLEWMGNIDPSDSDTHYNQKFKDHVTLSVDKSISTAYLQLSSLKASDTAMYYCVRGGTGTMAWFAYWGQGTLVTVSS
VL: DVVMTQSPLSLPVTLGQPASISCRSSQSLVHSYGNTYLYWFQQRPGQSPRLLIYRVSNRFSGVPDRFSGSGSGTDFTLKISRVEAEDVGVYYCFQGTHVPYTFGGGTKVEIKR
notes: humanized 18D5 variant; also called humanized 18D5 variant HBLB
For the molecule B8, in [7], the concentration giving a half-maximal response (EC50) is 2.95 ng/mL.

B9: modified anti-SIRPa HEFLB antibody with ECD of CD80 on the light chain (antibody, human IgG4 S228P, kappa)
heavy: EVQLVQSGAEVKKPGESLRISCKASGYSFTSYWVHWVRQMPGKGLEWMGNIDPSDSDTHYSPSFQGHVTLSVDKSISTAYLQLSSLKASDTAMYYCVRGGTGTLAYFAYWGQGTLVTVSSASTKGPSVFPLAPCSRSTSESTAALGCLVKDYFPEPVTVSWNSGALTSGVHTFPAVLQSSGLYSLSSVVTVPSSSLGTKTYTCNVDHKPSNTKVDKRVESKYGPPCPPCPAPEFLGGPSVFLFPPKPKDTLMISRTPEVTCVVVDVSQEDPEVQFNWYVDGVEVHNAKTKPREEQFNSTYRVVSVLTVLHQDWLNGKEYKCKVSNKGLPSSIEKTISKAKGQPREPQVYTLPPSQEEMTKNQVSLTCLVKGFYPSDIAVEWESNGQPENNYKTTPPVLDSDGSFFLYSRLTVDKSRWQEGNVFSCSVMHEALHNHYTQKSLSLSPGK
light: DVVMTQSPLSLPVTLGQPASISCRSSQSLVHSYGNTYLYWFQQRPGQSPRLLIYRVSNRFSGVPDRFSGSGSGTDFTLKISRVEAEDVGVYYCFQGTHVPYTFGGGTKVEIKRTVAAPSVFIFPPSDEQLKSGTASVVCLLNNFYPREAKVQWKVDNALQSGNSQESVTEQDSKDSTYSLSSTLTLSKADYEKHKVYACEVTHQGLSSPVTKSFNRGECGGGGSGGGGSGGGGSVIHVTKEVKEVATLSCGHNVSVEELAQTRIYWQKEKKMVLTMMSGDMNIWPEYKNRTIFDITNNLSIVILALRPSDEGTYECVVLKYEKDAFKREHLAEVTLSVKADFPTPSISDFEIPTSNIRRIICSTSGGFPEPHLSWLENGEELNAINTTVSQDPETELYAVSSKLDFNMTTNHSFMCLIKYGHLRVNQTFNWNTTKQEHFPDN
notes: as m32, ECD of CD80; also called VH+VLprot (CD80); HEF + LB-CD80
For orientation: EC50 (read off the curve) means the concentration giving half of the maximal effect. As for B9, the “EC50 (read off the curve)” value in assay [8] is ~8 ng/mL. The binding result in the assay with CTLA4-Fc is on record as “binds”.

B10: modified anti-SIRPa HEFLB antibody with ECD of CD80 on the heavy chain (antibody, human IgG4 S228P, kappa)
heavy: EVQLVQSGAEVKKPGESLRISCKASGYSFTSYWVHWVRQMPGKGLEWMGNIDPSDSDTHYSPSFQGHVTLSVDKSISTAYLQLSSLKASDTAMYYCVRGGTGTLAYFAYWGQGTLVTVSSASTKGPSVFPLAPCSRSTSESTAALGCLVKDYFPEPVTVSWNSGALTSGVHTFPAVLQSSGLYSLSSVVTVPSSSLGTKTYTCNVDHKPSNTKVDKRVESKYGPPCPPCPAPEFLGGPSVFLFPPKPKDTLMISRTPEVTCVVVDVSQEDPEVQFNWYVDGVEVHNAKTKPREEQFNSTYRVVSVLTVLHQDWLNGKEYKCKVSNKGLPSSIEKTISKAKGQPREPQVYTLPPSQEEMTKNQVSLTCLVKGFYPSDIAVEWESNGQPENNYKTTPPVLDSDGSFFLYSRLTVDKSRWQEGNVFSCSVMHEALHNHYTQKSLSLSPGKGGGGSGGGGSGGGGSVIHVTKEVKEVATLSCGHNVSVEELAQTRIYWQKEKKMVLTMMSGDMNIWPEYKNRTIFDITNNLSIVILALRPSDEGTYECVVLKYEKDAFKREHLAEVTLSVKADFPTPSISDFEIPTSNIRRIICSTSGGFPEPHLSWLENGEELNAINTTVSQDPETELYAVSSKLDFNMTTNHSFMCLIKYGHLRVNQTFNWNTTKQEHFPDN
light: DVVMTQSPLSLPVTLGQPASISCRSSQSLVHSYGNTYLYWFQQRPGQSPRLLIYRVSNRFSGVPDRFSGSGSGTDFTLKISRVEAEDVGVYYCFQGTHVPYTFGGGTKVEIKRTVAAPSVFIFPPSDEQLKSGTASVVCLLNNFYPREAKVQWKVDNALQSGNSQESVTEQDSKDSTYSLSSTLTLSKADYEKHKVYACEVTHQGLSSPVTKSFNRGEC
notes: as m25, ECD of CD80; also called VHprot+VL (CD80); VH-CD80
Regarding B10, the “EC50 (read off the curve)” value in [8] was ~8 ng/mL. Also, the binding result in the assay with CTLA4-Fc is listed as “binds”.
